Experimental data as given in paper PMC8215294.
Values belong to the molecule of their own block, whether it stands above or below them.

How the values were obtained:
[1] = tested on: Q94AM1; test: SEC; purified His-tagged TOPs treated 30 min at RT with DTTred, DTTox, GSH or GSSG, purified again and dialysed; XBridge BEH200A SEC column, 50 mM sodium phosphate, 150 mM NaCl, 0.02% NaN3, pH 7.0
[2] = molecular target: T1, TOP1^C548A, Q94AM1; test: size-exclusion chromatography (SEC), peak area quantification; details: chain shown with the change; treatment (Ctrl or GSSG) not stated for this panel; parent: est. 38; read off a plot
T1 chain: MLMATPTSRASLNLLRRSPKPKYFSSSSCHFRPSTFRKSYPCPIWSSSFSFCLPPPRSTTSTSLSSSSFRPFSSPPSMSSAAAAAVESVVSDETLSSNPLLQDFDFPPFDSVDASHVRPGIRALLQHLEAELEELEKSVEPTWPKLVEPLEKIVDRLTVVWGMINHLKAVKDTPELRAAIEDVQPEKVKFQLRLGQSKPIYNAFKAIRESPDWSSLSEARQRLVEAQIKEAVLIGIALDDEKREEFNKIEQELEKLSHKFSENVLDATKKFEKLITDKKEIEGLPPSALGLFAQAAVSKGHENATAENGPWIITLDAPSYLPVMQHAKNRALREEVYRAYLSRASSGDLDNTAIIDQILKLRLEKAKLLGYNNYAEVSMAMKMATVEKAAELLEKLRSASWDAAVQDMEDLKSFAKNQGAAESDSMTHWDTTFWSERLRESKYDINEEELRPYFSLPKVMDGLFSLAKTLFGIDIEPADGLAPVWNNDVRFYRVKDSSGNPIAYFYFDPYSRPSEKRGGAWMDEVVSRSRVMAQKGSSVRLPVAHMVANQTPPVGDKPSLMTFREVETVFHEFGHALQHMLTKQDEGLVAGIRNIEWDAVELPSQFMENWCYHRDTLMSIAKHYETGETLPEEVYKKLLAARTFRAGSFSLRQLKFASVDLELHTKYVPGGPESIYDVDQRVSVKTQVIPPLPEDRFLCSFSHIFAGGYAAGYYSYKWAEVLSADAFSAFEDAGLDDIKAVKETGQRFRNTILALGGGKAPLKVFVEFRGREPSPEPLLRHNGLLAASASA

[3] = molecular target: T2, TOP1^C29A, Q94AM1; test: as above; details: chain shown with the change; treatment (Ctrl or GSSG) not stated for this panel; parent: est. 38; read off a plot
T2 chain: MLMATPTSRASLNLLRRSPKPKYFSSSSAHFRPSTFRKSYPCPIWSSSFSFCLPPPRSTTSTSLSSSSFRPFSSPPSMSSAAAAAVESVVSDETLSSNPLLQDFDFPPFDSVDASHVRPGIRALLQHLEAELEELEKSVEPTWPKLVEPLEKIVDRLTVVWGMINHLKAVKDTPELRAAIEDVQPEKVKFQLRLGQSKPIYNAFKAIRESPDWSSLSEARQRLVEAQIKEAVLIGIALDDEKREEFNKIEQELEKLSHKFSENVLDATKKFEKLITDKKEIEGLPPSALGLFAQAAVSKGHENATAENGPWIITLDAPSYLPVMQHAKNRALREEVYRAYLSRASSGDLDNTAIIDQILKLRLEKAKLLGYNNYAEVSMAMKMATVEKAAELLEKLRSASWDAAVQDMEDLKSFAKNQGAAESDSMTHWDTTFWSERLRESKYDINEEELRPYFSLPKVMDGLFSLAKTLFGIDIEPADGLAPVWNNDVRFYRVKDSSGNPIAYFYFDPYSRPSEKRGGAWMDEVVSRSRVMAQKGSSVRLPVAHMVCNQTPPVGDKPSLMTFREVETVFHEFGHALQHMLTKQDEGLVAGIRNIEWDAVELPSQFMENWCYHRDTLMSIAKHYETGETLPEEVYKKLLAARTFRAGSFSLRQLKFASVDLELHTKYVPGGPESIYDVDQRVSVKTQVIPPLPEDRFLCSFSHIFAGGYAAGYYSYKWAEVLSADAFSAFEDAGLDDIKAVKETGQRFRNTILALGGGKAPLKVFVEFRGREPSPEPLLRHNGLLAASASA

[4] = molecular target: T3, TOP1^C42A, Q94AM1; test: as above; details: chain shown with the change; treatment (Ctrl or GSSG) not stated for this panel; parent: est. 38; read off a plot
T3 chain: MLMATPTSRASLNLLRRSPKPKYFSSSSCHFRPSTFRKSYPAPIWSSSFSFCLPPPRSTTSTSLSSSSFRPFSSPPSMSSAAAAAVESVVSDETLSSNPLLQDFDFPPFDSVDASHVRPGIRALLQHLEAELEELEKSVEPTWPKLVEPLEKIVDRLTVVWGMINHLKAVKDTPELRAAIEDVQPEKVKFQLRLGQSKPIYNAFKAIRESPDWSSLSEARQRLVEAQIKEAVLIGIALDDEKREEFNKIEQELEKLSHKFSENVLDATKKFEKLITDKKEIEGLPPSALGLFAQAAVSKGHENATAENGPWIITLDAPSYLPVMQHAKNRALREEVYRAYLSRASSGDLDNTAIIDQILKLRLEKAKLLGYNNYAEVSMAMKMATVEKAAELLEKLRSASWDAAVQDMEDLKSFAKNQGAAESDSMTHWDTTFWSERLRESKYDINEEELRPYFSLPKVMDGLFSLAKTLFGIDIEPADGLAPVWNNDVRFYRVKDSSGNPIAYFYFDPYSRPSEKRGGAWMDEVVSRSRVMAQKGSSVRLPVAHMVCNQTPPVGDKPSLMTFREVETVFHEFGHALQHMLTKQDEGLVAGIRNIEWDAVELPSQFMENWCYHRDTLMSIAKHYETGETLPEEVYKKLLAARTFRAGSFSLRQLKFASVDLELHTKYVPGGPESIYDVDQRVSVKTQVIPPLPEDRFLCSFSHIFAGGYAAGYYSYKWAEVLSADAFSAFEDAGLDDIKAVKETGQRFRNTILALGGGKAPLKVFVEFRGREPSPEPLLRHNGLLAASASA

Molecule: Arabidopsis thaliana thimet oligopeptidase TOP1, full-length
- monomer/dimer ratio (SEC peak area) after DTTred or DTTox [1]: ∼7/1 under both conditions
- monomer/dimer ratio (SEC peak area) after GSH [1]: 3/1 and 2/1 post-GSH and -GSSG, respectively
- monomer/dimer ratio (SEC peak area) after GSSG [1]: 3/1 and 2/1 post-GSH and -GSSG, respectively

B2: Arabidopsis thaliana thimet oligopeptidase TOP1, full-length, Q94AM1 C29A (protein)
chain: MLMATPTSRASLNLLRRSPKPKYFSSSSAHFRPSTFRKSYPCPIWSSSFSFCLPPPRSTTSTSLSSSSFRPFSSPPSMSSAAAAAVESVVSDETLSSNPLLQDFDFPPFDSVDASHVRPGIRALLQHLEAELEELEKSVEPTWPKLVEPLEKIVDRLTVVWGMINHLKAVKDTPELRAAIEDVQPEKVKFQLRLGQSKPIYNAFKAIRESPDWSSLSEARQRLVEAQIKEAVLIGIALDDEKREEFNKIEQELEKLSHKFSENVLDATKKFEKLITDKKEIEGLPPSALGLFAQAAVSKGHENATAENGPWIITLDAPSYLPVMQHAKNRALREEVYRAYLSRASSGDLDNTAIIDQILKLRLEKAKLLGYNNYAEVSMAMKMATVEKAAELLEKLRSASWDAAVQDMEDLKSFAKNQGAAESDSMTHWDTTFWSERLRESKYDINEEELRPYFSLPKVMDGLFSLAKTLFGIDIEPADGLAPVWNNDVRFYRVKDSSGNPIAYFYFDPYSRPSEKRGGAWMDEVVSRSRVMAQKGSSVRLPVAHMVCNQTPPVGDKPSLMTFREVETVFHEFGHALQHMLTKQDEGLVAGIRNIEWDAVELPSQFMENWCYHRDTLMSIAKHYETGETLPEEVYKKLLAARTFRAGSFSLRQLKFASVDLELHTKYVPGGPESIYDVDQRVSVKTQVIPPLPEDRFLCSFSHIFAGGYAAGYYSYKWAEVLSADAFSAFEDAGLDDIKAVKETGQRFRNTILALGGGKAPLKVFVEFRGREPSPEPLLRHNGLLAASASA
- other: percent dimer [3]: 2.5%

Now from value to molecule:

- other: percent dimer [2]: 18%
B1: Arabidopsis thaliana thimet oligopeptidase TOP1, full-length, Q94AM1 C548A (protein)
chain: MLMATPTSRASLNLLRRSPKPKYFSSSSCHFRPSTFRKSYPCPIWSSSFSFCLPPPRSTTSTSLSSSSFRPFSSPPSMSSAAAAAVESVVSDETLSSNPLLQDFDFPPFDSVDASHVRPGIRALLQHLEAELEELEKSVEPTWPKLVEPLEKIVDRLTVVWGMINHLKAVKDTPELRAAIEDVQPEKVKFQLRLGQSKPIYNAFKAIRESPDWSSLSEARQRLVEAQIKEAVLIGIALDDEKREEFNKIEQELEKLSHKFSENVLDATKKFEKLITDKKEIEGLPPSALGLFAQAAVSKGHENATAENGPWIITLDAPSYLPVMQHAKNRALREEVYRAYLSRASSGDLDNTAIIDQILKLRLEKAKLLGYNNYAEVSMAMKMATVEKAAELLEKLRSASWDAAVQDMEDLKSFAKNQGAAESDSMTHWDTTFWSERLRESKYDINEEELRPYFSLPKVMDGLFSLAKTLFGIDIEPADGLAPVWNNDVRFYRVKDSSGNPIAYFYFDPYSRPSEKRGGAWMDEVVSRSRVMAQKGSSVRLPVAHMVANQTPPVGDKPSLMTFREVETVFHEFGHALQHMLTKQDEGLVAGIRNIEWDAVELPSQFMENWCYHRDTLMSIAKHYETGETLPEEVYKKLLAARTFRAGSFSLRQLKFASVDLELHTKYVPGGPESIYDVDQRVSVKTQVIPPLPEDRFLCSFSHIFAGGYAAGYYSYKWAEVLSADAFSAFEDAGLDDIKAVKETGQRFRNTILALGGGKAPLKVFVEFRGREPSPEPLLRHNGLLAASASA

- other: percent dimer [4]: 12%
B3: Arabidopsis thaliana thimet oligopeptidase TOP1, full-length, Q94AM1 C42A (protein)
chain: MLMATPTSRASLNLLRRSPKPKYFSSSSCHFRPSTFRKSYPAPIWSSSFSFCLPPPRSTTSTSLSSSSFRPFSSPPSMSSAAAAAVESVVSDETLSSNPLLQDFDFPPFDSVDASHVRPGIRALLQHLEAELEELEKSVEPTWPKLVEPLEKIVDRLTVVWGMINHLKAVKDTPELRAAIEDVQPEKVKFQLRLGQSKPIYNAFKAIRESPDWSSLSEARQRLVEAQIKEAVLIGIALDDEKREEFNKIEQELEKLSHKFSENVLDATKKFEKLITDKKEIEGLPPSALGLFAQAAVSKGHENATAENGPWIITLDAPSYLPVMQHAKNRALREEVYRAYLSRASSGDLDNTAIIDQILKLRLEKAKLLGYNNYAEVSMAMKMATVEKAAELLEKLRSASWDAAVQDMEDLKSFAKNQGAAESDSMTHWDTTFWSERLRESKYDINEEELRPYFSLPKVMDGLFSLAKTLFGIDIEPADGLAPVWNNDVRFYRVKDSSGNPIAYFYFDPYSRPSEKRGGAWMDEVVSRSRVMAQKGSSVRLPVAHMVCNQTPPVGDKPSLMTFREVETVFHEFGHALQHMLTKQDEGLVAGIRNIEWDAVELPSQFMENWCYHRDTLMSIAKHYETGETLPEEVYKKLLAARTFRAGSFSLRQLKFASVDLELHTKYVPGGPESIYDVDQRVSVKTQVIPPLPEDRFLCSFSHIFAGGYAAGYYSYKWAEVLSADAFSAFEDAGLDDIKAVKETGQRFRNTILALGGGKAPLKVFVEFRGREPSPEPLLRHNGLLAASASA
